Assay results reported in doi:10.1101/153403.

Legend:
[1] = biological target: mature myostatin growth factor dimer (from HRV-3C cleaved proMSTN-3C) (human) (UniProt O14793); assay: SEC-MALS
[2] = biological target: myostatin pro-domain of the HRV-3C cleaved pro-myostatin complex (from proMSTN-3C) (human); assay: SEC-MALS

stoichiometry N [1]: 2
stoichiometry N (pro-domains per mature GF dimer) [2]: 2
Substance: mature myostatin growth factor dimer (from HRV-3C cleaved proMSTN-3C) (from UniProt O14793 267-375) (ligand)
